Target: GFRα2-RET receptor complex (cells transfected with GFRα2 and expressing RET)
Assay: cell-based or functional assay

B1: PGP-F2ac (His-Flag-PGP-F2ac, from mouse persephin and rat GDNF) (ligand)
chain: ALAHHHHHHDYKDDDDKGSCRLWSLTLPVAELGLGYASEEKVIFRYCAGSCPQEARTQHSLVLARLRGRGRAHGRPCCQPTAFDDDVTFLDDQHHYHILRKHSAAACGC
  GFRα2-RET reporter activation relative to GDNF: < 30 % of GDNF

From patent US6866851 (WASHINGTON UNIVERSITY, dated 2005)
